# Laboratory results taken from article PMC8207647.
# What was measured:
# Assay in all cases: purified protein
# Conditions in all cases: O2 co-substrate, pH 7.5 sodium phosphate 50 mM, 35 °C
# [1] = system: COc1ccc(CO)cc1OC
# [2] = system: O=C(O)c1ccc(CO)o1
# [3] = system: O=Cc1ccc(C=O)o1
# [4] = system: O=Cc1ccc(CO)o1
substance,measurement,setting,value
FoxAAO (Fusarium oxysporum f. sp. lycopersici 4287),Km,[1],3.0 ± 0.24 mM
same,kcat,[1],25 ± 1.2 s⁻¹
same,kcat/Km,[1],8300 M⁻¹ s⁻¹
same,Km,[2],3.1 ± 0.31 mM
same,kcat,[2],5.2 ± 0.14 s⁻¹
same,kcat/Km,[2],1700 M⁻¹ s⁻¹
same,Km,[3],3.7 ± 1.0 mM
same,kcat,[3],1.4 ± 0.13 s⁻¹
same,kcat/Km,[3],380 M⁻¹ s⁻¹
same,Km,[4],17 ± 4.9 mM
